Laboratory results reported in patent US20150231240A1, “ANTI-C16ORF54 ANTIBODIES AND METHODS OF USE THEREOF” (priority 2012, published 2015).

Tests used:
[1] = target: T1, cynomolgus monkey C16orf54 (cynomolgus monkey (Macaca fascicularis), UniProt Q6UWD8 1-224 (human entry)); test: flow cytometry titration, F279-cyno-C16orf54 cells
T1 construct: also called cyno C16orf54; cyno-C16orf54
T1 chain: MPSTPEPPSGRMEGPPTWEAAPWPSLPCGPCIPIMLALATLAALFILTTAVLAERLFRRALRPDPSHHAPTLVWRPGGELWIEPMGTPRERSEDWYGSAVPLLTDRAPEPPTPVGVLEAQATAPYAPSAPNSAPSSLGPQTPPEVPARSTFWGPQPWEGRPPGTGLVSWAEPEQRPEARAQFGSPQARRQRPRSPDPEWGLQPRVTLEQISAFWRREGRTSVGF
Method: Anti-C16orf54 antibodies which bound to human C16orf54 were tested for their binding to cells expressing human C16orf54 and cells expressing cyno C16orf54. […] Median fluorescence intensities for each primary antibody concentration were used to derive a flow EC50/Kd using the one site-specific binding with Hill slope model in Prism (GraphPad Prism® Software). Results are shown as flow EC50 in Table 35.

[2] = target: T2, human C16orf54 (human, UniProt Q6UWD8 1-224); test: flow cytometry, 10 ug/ml antibody, D42M1-huC16orf54 cells
T2 construct: also called huC16orf54; hC16orf54
T2 sequence: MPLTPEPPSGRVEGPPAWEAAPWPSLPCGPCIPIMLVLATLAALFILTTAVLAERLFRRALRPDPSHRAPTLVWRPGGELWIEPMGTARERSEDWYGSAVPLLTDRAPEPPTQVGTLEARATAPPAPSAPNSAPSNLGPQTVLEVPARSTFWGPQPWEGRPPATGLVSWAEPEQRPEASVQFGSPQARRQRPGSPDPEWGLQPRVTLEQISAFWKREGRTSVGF
Method: (§1) Anti-C16orf54 antibodies which bound to human C16orf54 were tested for their reactivity with human C16orf54 and their crossreactivity with C16orf54 from cynomolgous monkeys (cyno C16orf54) using flow cytometry. Sarcoma cells transfected with and expressing human C16orf54 or cyno C16orf54 were washed with PBS with 0.1% BSA, incubated with FcX receptor blocking solution (BioLegend) for 15 minutes, incubated with 10 μg/ml of anti-C16orf54 antibody for 1 hour at 4° C., washed twice with PBS with 0.1% BSA, incubated with 20 μg/ml of R-Phycoerythrin-AffiniPure F(ab′)2 Fragment Goat Anti-Mouse IgG, Fcγ Fragment Specific (Jackson ImmunoResearch) for 30 minutes at 4° C., washed twice with PBS with 0.1% BSA, incubated with the viability dye TO-PRO-3 iodide (Life Technologies), and immediately analyzed on a MACSQuant Analyzer instrument (Miltenyi). For each cell line and anti-C16orf54 antibody, a fold change was derived by dividing the median fluorescence intensity for Phycoerythrin in the live cell population for the anti-C16orf54 antibody by the median fluorescence intensity for Phycoerythrin in the live cell population for the IgG isotype control antibody. A number of anti-C16orf54 antibodies (see, e.g., R29-8-57B, R29-8-136C, R29-7-1C, R29-67-7A, R29-67-4A, and R29-7-2A) bind human C16orf54 and also bind (e.g., are crossreactive with) cyno C16orf54.

[3] = target: T1, cynomolgus monkey C16orf54; test: flow cytometry, 10 ug/ml antibody, F279-cyno-C16orf54 cells
Method: as §1

[4] = target: T2, human C16orf54; test: flow cytometry titration, KG1 cells (endogenous human C16orf54)
[5] = target: T3, human C16orf54 ECD fragment aa1-15 (human); test: peptide ELISA, 2 ug/ml peptide coated, 10 ug/ml antibody; column 'Human ECD & ECD fragments bound by antibody'
T3 peptide: MPLTPEPPSGRVEGP
Method: (§2) Anti-C16orf54 antibodies which bind to human C16orf54, including antibodies that are crossreactive with cyno C16orf54, were tested for their binding to various peptides derived from C16orf54 in a peptide ELISA. A 384-well high binding black microplate (Greiner) was incubated with 2 μg/ml of protein (human, cyno, or mouse extracellular domain peptides) for 16 hours, incubated for 1 hr with a blocking buffer (PBS with 5% Fetal Bovine Serum), washed four times with TBS with Tween, incubated for 1 hour with 10 μg/ml of anti-C16orf54 antibody, washed four times with TBS with Tween, incubated for 1 hour with 10 μg/ml of Peroxidase-AffiniPure Goat Anti-Mouse IgG, Fcγ Fragment Specific (Jackson ImmunoResearch), washed four times with TBS with Tween, and peroxidase was detected with a luminometer (Molecular Devices) upon addition of SuperSignal® ELISA Pico Chemiluminescent Substrate (Thermo Scientific). The luminescence signal was determined.

[6] = target: T4, human C16orf54 ECD fragment aa9-24 (human); test: as above
T4 peptide: SGRVEGPPAWEAAPWP
Method: as §2

[7] = target: T5, N-terminal 32 amino acids of huC16orf54 coupled to biotin (human, biotin at the C-terminus); test: biolayer interferometry (OctetQK384), purified antibody on streptavidin sensors coated with the biotinylated peptide
T5 construct: also called 32 amino acid N-terminal extracellular domain
T5 peptide: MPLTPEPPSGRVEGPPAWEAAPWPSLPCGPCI
Method: Affinity measurements of purified anti-huC16orf54 antibodies were carried out on the OctetQK384® sytem (ForteBio). After coating streptavidin sensors with the N-terminal 32 amino acids of huC16orf54 coupled to biotin at the C-terminus, association and dissociation of purified anti-huC16orf54 antibodies was monitored. KD values were derived using ForteBio's software.

[8] = target: T5, N-terminal 32 amino acids of huC16orf54 …; test: biolayer interferometry (OctetQK384), hybridoma supernatant on streptavidin sensors coated with the biotinylated peptide
Method: Eight anti-huC16orf54 monoclonal antibodies were further screened for binding and subsequent off-rate analysis using the OctetQK384® sytem (ForteBio). Hybridoma supernatants were screened for association to and dissocation from streptavidin sensors coated with the N-terminal 32 amino acids of huC16orf54 coupled to biotin, and the calculated offrates (kdis) are shown in Table 31. Cloned hybridomas with […] off-rates were carried forward for antibody purification.

[9] = target: T6, Human C16-ECD peptide (aa1-31) (human); test: column head 'Full kinetics (nM)' in the table of the C16orf54 peptide binding assays; method and antigen not described; 4 runs
T6 construct: Coated on plates in the peptide ELISA; also called human extracellular domain peptide
T6 peptide: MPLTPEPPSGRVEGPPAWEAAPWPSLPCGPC

[10] = target: T7, cynomolgus monkey C16orf54 (cynomolgus monkey (Macaca fascicularis)); test: flow cytometry, 10 ug/ml antibody, F279-cyno-C16orf54 cells
T7 sequence: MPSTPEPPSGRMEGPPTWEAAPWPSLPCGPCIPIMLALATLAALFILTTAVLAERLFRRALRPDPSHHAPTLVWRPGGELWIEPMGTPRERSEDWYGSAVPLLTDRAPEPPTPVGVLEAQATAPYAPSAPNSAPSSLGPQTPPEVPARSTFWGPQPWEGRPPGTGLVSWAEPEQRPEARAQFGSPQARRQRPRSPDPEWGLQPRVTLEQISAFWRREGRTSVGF

[11] = target: T8, Cyno C16-ECD peptide (aa1-31) (cynomolgus monkey); test: peptide ELISA, 2 ug/ml peptide coated, 10 ug/ml antibody; column 'Cyno ECD bound by antibody'
T8 construct: Coated on plates in the peptide ELISA; also called cyno extracellular domain peptide; Cyno ECD
T8 peptide: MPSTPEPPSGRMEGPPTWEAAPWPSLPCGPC
Method: as §2

[12] = target: T6, Human C16-ECD peptide (aa1-31); test: column head 'Full kinetics (nM)' in the table of the C16orf54 peptide binding assays; method and antigen not described; 2 runs; 2 runs, stdev 0.02
[13] = target: T3, human C16orf54 ECD fragment aa1-15; test: peptide ELISA, 2 ug/ml peptide coated, 10 ug/ml antibody
Method: as §2

[14] = target: T4, human C16orf54 ECD fragment aa9-24; test: as above
Method: as §2

[15] = target: T6, Human C16-ECD peptide (aa1-31); test: column head 'Full kinetics (nM)' in the table of the C16orf54 peptide binding assays; method and antigen not described; 1 run

B1: R29-7-2A (antibody, V domains shown)
VH: EVQLVESGGGLIQPKGSLKLSCVASGFSFNTHAMNWVRQAPGKGLEWVARIRSKSNNYARYYADSVKDRFTISRDDSQSILYLQMNNLKTEDTAMYYCVKQGDGGFAYWGQGTLVTVSA
VL: DIVMSQSPSSLAVSVGEKVTMSCKSSQSLLYSSNQKNYLAWYQQRPGQSPKLLIYWASARESGVPDRFTGSGSGTDFTLTISSVKAEDLAVYYCQQYYSYPPTFGAGTKVELK
notes: Murine monoclonal IgG2b from a hybridoma
[1]
  EC50: 2.7 nM
[2]
  Median fold change relative to IgG control: 267 fold
[3]
  Median fold change relative to IgG control: 78.5 fold
[4]
  EC50: 1 nM
[5]
  binding result: binds
[6]
  binding result: binds
[7]
  Kd: 1.3 nM
  koff: 4.12e-05 s⁻¹
  kon: 31900 M⁻¹ s⁻¹
[8]
  koff: 0.00707 s⁻¹
[9]
  Kd: 1.01 nM

B2: R29-8-58C (antibody, V domains shown)
VH: EVKLVESGGGLVKPGGSLKFSCAASGFTFSSYAVSWVRQTPEKRLEWVASITSGGRSYYPDSVKGRFTISRDNARSMLYLHMSSLRSEDTAMYYCTRGWDENDLWGQGTTLTVSS
VL: DVVMTQTPLSLFVSLGDQASISCRSSQSLLYSNGNTYLHWYLQRPGQSPQLLIYKVSNRFSGVPDRFSGSGSGTDFTLKISRVEAEDLGVYFCSQTTHVPWTFGGGTKLEIK
notes: Murine monoclonal antibody from a hybridoma
[10]
  Median fold change relative to IgG control: 1.4 fold
[2]
  Median fold change relative to IgG control: 184 fold
[4]
  EC50: 0.6 nM

B3: R29-8-75B (antibody, V domains shown)
VH: DVQLVESGGGLVQPGGSRKLSCAASGFTFSRFGMHWVRQAPEKGLEWVAYISSGSSTIYYADTVKGRFTISRDNPKNTLFLQMTSLRSEDTAMYYCARVDYDVALAYWGQGTLVTVSA
VL: GVLMTQTPLSLPVSLGDQASISCRSSQSIVHRNGNTYLEWYLQKPGQSPKLLIYKVSNRFSGVPDRFSGSGSGTDFTLKISRVEAEDLGVYYCFQGSQWTFGGGTKLEIK
notes: as for B2
[2]
  Median fold change relative to IgG control: 148 fold
[3]
  Median fold change relative to IgG control: 7.8 fold
[4]
  EC50: 6.5 nM
[11]
  binding result: binds
[5]
  binding result: binds
[6]
  binding result: binds
[12]
  Kd: 0.09 nM

B4: R29-67-7A (antibody, V domains shown)
VH: DVQLQESGPGLVKPSQSLSLTCTVTGYSITSDYAWNWIRQFPGNKLEWMGYINYSGRTRYNPSLNSRISLTRDTSTNQFFLQLNSVTTEDTATYYCARENYDYEFYAMDYWGQGTSVTVSS
VL: DIVMSQSPSSLAVSVGEKVTMSCKSSQNLLYSSNQKNYLAWYQQKPGQSPKLLIYWASTRESGVPDRFTGSGSGTDFTLTISSVKAEDLAVYYCQQYYIYRTFGGGTKLEIK
notes: Murine monoclonal IgG2a from a hybridoma
[1]
  EC50: 3.7 nM
[13]
  binding result: binds
[14]
  binding result: binds
[2]
  Median fold change relative to IgG control: 140 fold
[3]
  Median fold change relative to IgG control: 35.6 fold
[4]
  EC50: 7.3 nM
[8]
  koff: 0.00845 s⁻¹
[15]
  Kd: 2.51 nM
